Test results reported in article PMC3404820.

Target: amphiphilic diblock polypeptide (ADP) derived from elastin-mimetic sequences, unlabeled
Test: dynamic light scattering

stoichiometry N (chains per micelle): 106
B1: amphiphilic diblock polypeptide (ADP) derived from elastin-mimetic sequences, unlabeled (protein)
chain: VPGVGVPGEGVPGVGVPGEGVPGVGVPGVGVPGEGVPGVGVPGEGVPGVGVPGVGVPGEGVPGVGVPGEGVPGVGVPGVGVPGEGVPGVGVPGEGVPGVGVPGVGVPGEGVPGVGVPGEGVPGVGVPGVGVPGEGVPGVGVPGEGVPGVGVPGVGVPGEGVPGVGVPGEGVPGVGVPGVGVPGEGVPGVGVPGEGVPGVGVPGVGVPGEGVPGVGVPGEGVPGVGVPGVGVPGEGVPGVGVPGEGVPGVGIPGVGIPGVGVPGYGIPGVGIPGVGIPGVGIPGVGVPGYGIPGVGIPGVGIPGVGIPGVGVPGYGIPGVGIPGVGIPGVGIPGVGVPGYGIPGVGIPGVGIPGVGIPGVGVPGYGIPGVGIPGVGIPGVGIPGVGVPGYGIPGVGIPGVGIPGVGIPGVGVPGYGIPGVGIPGVGIPGVGIPGVGVPGYGIPGVGIPGVGIPGVGIPGVGVPGYGIPGVGIPGVGIPGVGIPGVGVPGYGIPGVGIPGVGIPGVGIPGVGVPGYGIPGVGIPGVGIPGVGIPGVGVPGYGIPGVGIPGVGIPGVGIPGVGVPGYGIPGVGIPGVGIPGVGIPGVGVPGYGIPGVGIPGVGIPGVGIPGVGVPGYGIPGVGIPGVG
modifications: not checked
